Measured values reported in a protein production outcome set (Wang et al. 2014).

Assay: label from the status in PepcDB records
For “MAAKTMDFAGPAVSTGLGGLGPTRVSGAALMATLLFLGAPLLFAGNMLAARMMQGVLPPFTLASARWALAALVLLPFVRRELFGQRRAAPGRWRALVLPAVLGGALSVGPQYWAAHFTSAGNIALVFAMTPLLVALLDRLAGGARLGAPALAGMGLAIAGIATASFQGSLARLLAFQINPGDLLAGLAALAWAGYTVATRRPRAGLSGLALLWGVAAGGALTLAPAAAVEWLVLGVPSLSREAVLGVAFLAIVPSIGAYLAYGRLIGLVGPVVAGTSMYLIPLYALALGAMVLGEALGRYHLAAAALVIGGVALSRWRGAAKVCG”, the protein production was “failed”.
With “MAAKTMRKAEELVEKAMKGNDASHDAWHVWRVRDLALSIAREEGLSSNSDSMEIVELAALLHDIGDYKYIRDPSEEKLVENFLDDEGIEETKKTKILTIINGMGFKDELAGVALCESLPEFGVVQDADRLDAIGAIGIARCFTFGGSRNRVLHDPEIKPRTELTKEQYIKREEQTTINHFHEKLLKLKKLMKTEAGKRRAEKRHKFMEEYLKEFYEEWDGST” the protein production was “failed”.
For “MAALGLGTYGAHVFKPENPSYKQVWQTASLYHLVHTAALVSAPSTKYPNIFGGLLTAGIVAFSGTCYMVALREDRKFSTLAPFGGFAFIAAWATLLF”, the protein production was “failed”.
In the case of “MAAPLCVKVEFGGGAELLFDGVKKHQVALPGQEEPWDIRNLLVWIKKNLLKERPELFIQGDSVRPGILVLINDADWELLGELDYQLQDQDSILFISTLHGG”, the protein production is reported as “not failed”.
In the case of “MAARRFTGDELAALLPHAGDAFFLRDAEVDGWRASGGASWRSDHPHLRGHFPGEPIVPGVYLLEAAAQLAGVAIRCGAEDWTPETLGVLAGVRKSYFHRFVRPGERVDYALDVKPAPGSAMYAVSGLGKVDGDKVLTVELTIAGVRRLEHHHHHH”, the protein production is reported as “failed”.
In the case of “MAASFAFLRDIRPYKTSWRIQVKVFHSWRQYTSMTGETLELVLVDAHGVKIHASVKKDLVSNFVNNLLLNEWRFIETFALNHASGQFRPTGHLYKMTFVTGTQCILLDVMGQVVDIGELETLEAKNKPTIKLDFELRDDTDERMSCTLWGAFAQSVFSACEFADGQMVICVLRFAKIKSYKGVRSFSNSFYASQVHINPDFPEVQAFVSRVPKFHMVTVKQDDDCKQYERKSIRDFLHSMEVRVVCTIYALDTDWSWYYFSCRNCNKKVTHIHAGVNTTSLKSSKPRFWCDVCKNGVTNVQAK”, the protein production is reported as “failed”.
In the case of “MAASSPDSYISRRPYVTMGLTVAGVLVLVVATQLVEVLFTVFAGILLAVFLAGVTQELTEDTRLPRPLAVALTLIGLGGVLVGLWALAGPDISEQASALATLLPDAAERLASRIRTTVQRYGWMQRYVDPSQLLPPVSSVLGRVTNVFRDTLNLLVNGFIILFIGIYGGAAPQSYLDGVVQLVPPSSRPRARDVLSALGRALRWWLTGRLILMLIVGVLTAVGLKVVGIPSPIALGLLAALFSFVPYLGPVLSVLPALLVASLIGPTEVLYVILVYGAVQLLESYLISPLVQQQAVHIPPATVITAQFIGGVSAGAGGVLLATPFAIVVIVLVQTLYVEDVLGDEVSLLGEH”, the protein production is reported as “failed”.
With “MAASSSARVAAATAPTASPTSAAPAAPHDGEDNVAADAPYRVLIVEDDRSQALFAQSVLHGAGMHAQVEMTAASVPQAIQDYHPDLILMDLHMPELDGIRLTTLIRQQPGQQLLPIVFLTGDPDPERQFEVLDSGADDFLTKPIRPRHLIAAVSNRIRRARQQALQQAGEQVSVRSNPETGLPTRGHVMDLLADALERKQSGGLFFIEIASALGLRERYGYAAYERLMTQAGHRLASAAQPYPLARLNDNSFLLLAVDMPEASLEQQALEIRQRLSANAFPVREEESVHVRCAIGVAPLGLGFDDTGSALEAVERTALQARLRSDGVQTYLAPSQAEQQEQLRLVEGQLELAYQPIVAVAGGDTAQYQVLLRLRQADGTLLSAGQVIPAAEAAGRIADLDQQVMDHALGLLHLYQHASPPLRLFVSQSPRTLARDAFADWLLKALVERGVAGQSLIVDLRLDDALIHAVTVQQFCAKLMPAGVQFCLSQFEPGDEANALLAQLPLSFVRMANRFADAHGNAAVRDELRGVIDIAHQRGLLIIGQRIEDPQAAAAMWMSGVDFIQGNLVQTVGKELDFDFTSAVL” the protein production was “failed”.
For “MAATTGLETLVDQIISVITNDGRNIVGVLKGFDQATNIILDESHERVFSTKEGVQQHVLGLYIIRGDNIGVIGELDEELDASLDFSKLRAHPLKPVVH”, the protein production was “failed”.
In the case of “MAAWVIWFIIAGILFIAEMLSITFYMLWLGIGAVVGGLIALFAPDALLLQVTVGAIVSLTLTFFTKRISKNFREAKGFTDTVDMLVGKRGIVMQAITNEANGIVKVDGDTWTAIADSSIDAGEKVVVIKRHSTILQVKKESE”, the protein production is reported as “failed”.
In the case of “MAAYLERCDSVEEDYIDMEVTSFTNLVRKTLSNNYPREFEFQMSHLCPLEIDKTTSPADELFYKGKLLPLHLPPRLQMVQKILEDYTFDDEFYSTPLATGTVTTPVTSNTPFESCTVSPAESCQVSKELNPEDYFLEYSDSLEEDDEKKKSWTTKLRLMKQSSLGTKIKASRAYLRSFFGKTSCSDESSCASSAARVADEDSVLRYSRVKPFGQIKTERPKKQSNGSVSGSHRRSFSVSMRRQAAKSSNNKSSNSLGFRPLQFLKRSTSSSSEIENSIQGAILHCKQSQQQKQKQKQYSTVNEVGFCSLSASRIAARDDQEWAQMFRG”, the protein production is reported as “failed”.
With “MACFMALVLARFGFGFCMLLAALVLLAAATLLATRLVGWAVRAFALERSQALASGVAIFILVALALWGCHAVGEVLYGAIGATALVGGAPHWLAGNSHVSAAALMGATTAAAMLAGGPAFWRWLRARRAAAAEQPAPRKAAPPKGAKPAARAAKAAAKTQIAPRGQRIPWLGWTAFFLLFIGAAVLAFAYIVAPIEAGASGLRLEHATRARPVYLAGLTLLGGGAFFLLAWLSRRRLPGD” the protein production was “failed”.
For “MADALKIGIAGLGTVGASLVRIIQQKSNELAVTCGRPITITAVSARDKTRDRGVDLSAVAWFDRPEDLAEKGDIDVFVELMGGAEGAANVSVRAALQRGLHVVTANKALLAYHGVELATIAEEKGSLLNFEAAVAGGIPVIKALRESLTGNAVSRIYGIMNGTCNYILTKMEKEGLSFAECLKEAQRLGYAEADPAFDIEGNDTAHKLAILTTLAFGNRIAADDIYLEGITNISIEDIHAAAELGYRIKLLGVAQRTETGIEQRVHPTMVPVDSVIAQVDGITNAVAIESDVLGELLMVGPGAGGNATASSVLGDIADIAKSQPGAQRVPVLGHPAKALEPYRKAQMQSHEGGYFIRLTVLDRTGVFASVATRMAENHISLESIVQRSTQHLAPSHHQTIILVTHATMEESVRKAVASIRSEGYLFGEPQVIRIERPKEEA”, the protein production was “failed”.
In the case of “MADDIRILMCPPDHYDVDYVINPWMEGNIHKSSQERAVEQWKKLHQTIKECAIVDLVKPAKGWPDMVFTANAGLVLGENVVLSRFYHKERQGEEPYFKAWFEENGFTVYELPQDLPFEGAGDALFDREGRWLWAGYGFRSELDSHPYIAKWLDTEVVSLRLIDERFYHLDTCFCPLSGGYLLYYPPAFDAYSNRVIEMRIPPEKRIIVEELDAVNFACNAVNVNDIIIMNLVSRTLKEKLAEAGFKVRETPLTEFLKAGGAAKCLTLRVTEPILPDVHATVSIESRVIRMEGHLLDAGILNQALDLVVENSGSFRVLNFNLGVERNSTSSAEVRVSAPSHQIMEEIMTELIDLGAVPPPQELCDINTETVTQGGVAPDDFYVSTIYPTEVRVNCEWVQVTGQRMDAAIVVTSNPPSARCVLLRDLQVGDRVMVGVEGIRTIKKVESHEGGTRKENKEFAFMAAGVSSERRVELLVEQIAWEMRQIRDQGGKIVVTAGPVVIHTGGAQHLSHLVREGYVHALLGGNAIAVHDIEQATMGTSLGVDMQRGIPVRGGHRHHLKIINSVRRYGGIRQAVEAGFISKGVMYECVKNNIPYCLAGSIRDDGPLPDTEMNLVRAQSRYSELIQGADMILMLSSMLHSIGVGNMTPSGVKMVCVDINPAVVTKLSDRGSVESVGVVTDVGLFLSLLVRQLQQLTRPYSLAETL”, the protein production is reported as “failed”.
With “MADDKKKRNKKKKRSTGNKRKMTTEQSEAFKSITDWLILGSSPSLSSSSDDFAVNINSGSLRCGEKVVFELHSHSNRSDGFLSPSKVVERAYNNGVKVLSLTDHDTMAGVPEAVEAGRRFGIKIIPGIEISTLFGLRDSGSEEPVHILAYYGTSGPALYDELEDFLVKIRDGRFVRGREMVLKLNKLKIPLKWEHVTRIAGKDVAPGRMHVARALLEAGYVENLRQAFTKYLHDGGPAYATGTEPMAEEAVKLICKTGGVAVLAHPWALKNHVGIIRRLKDAGLHGVEVYRSDGKLEVFSELADTYNLLKLGGSDYHGKGGRNESELGSVNLPVTALQDFLNVGRPIWCEAIKATMRAFLDQPSDSNLSNILRFDKARILKGNSAWSCGKELMDRCLAIWLTSDERNSNDFEALRLKLSFVPIMSNGTCVTVGP” the protein production was “failed”.
For “MADETNALRQKNRELNKKIDWQKDYDREKLERDNRDLEQCKEDLLAANENLRNRIQEWENEKNKLDPRDERIKELEEEKRELEGILAQKENAEQKYNTLSVKNKQLEAELDMLNEKFEKLKNMYAGVEDFEKRQKNIKEQIVKTNPKVLGAPSNEVEELAFLERIEKGMQEFNVFYPKRLLYMFHTALKSTSLSPLSVLSGVSGTGKSELPKLYVHFGGLNFLSIAVQPTWDSPESLMGYFHAIENKFDATEFLRFFIQTTLSNNEEPYGLKEAMSIVLLDEMNLAHIELYFAEFLSKLEIKCSQETNISIKLGTGLTWELPLGDNLLFVGTMNEDESTKMLSDKVLDRAFCLNFERPKILKGKQQKPIPSNDGYLKVETFNRWINKKGDQEAKLEGKYKKLTEEINERLDACGRSIGHRVWQSMSTYMHNHPLVLHASDKNKALQFAYEECLVLKIFPKLRGVQTRNNQHLTKIQDLLKDFSVSSDFKQAMENDFKEFVFNSTNYLNNVEYEKLLKK”, the protein production was “failed”.
In the case of “MADFKIVISDPQAPKEETVVKVKVVGDPEIKFDENVKEGFELPILKMNSKTAEKIKAVHGVATIRMYKPGTKDKVKITGKIIVDDNIPENEVRVNAEQLVNATGTNELEGELFRARAWQIRINDDRTKLLIGLKIGDEFDGSIVGLKNVKLKIRGGSDNSGFPMRPDVMGGVKKRVLLSGPPGFHPREKGERRRKMIRGNTITEDIVQINTVIKYV”, the protein production is reported as “failed”.
For “MADFSRLPGPNADLWDWQLLAACRGVDSSLFFHPEGERGAARSARENSAKEVCMRCPVRAECAAHALAVREPYGVWGGLTEDEREELMGRARNRLVAATASASAGGEAAGPH”, the protein production was “failed”.
With “MADFTLSKSLFSGKYRNASSTPGNIAYALFVLFCFWAGAQLLNLLVHAPGVYERLMQVQETGRPRVEIGLGVGTIFGLIPFLVGCLIFAVVALWLHWRHRRQ” the protein production was “failed”.
For “MADLINILNHFVQEQPEAVAVRHTNDELTYKQLDEESSKLAHLLQDSKKPMILYGHMSPYMIVGMIGAIKSGCGYVPIDTSVPKERVNMIIDKVQPEIIFNTSDETLEQTNAQVLKVSDIQDSQYPIVFDSQMKQNDVVYTIFTSGSTGEPKGVQIEYASLNEFAEWMVSLNKTGTGKEWLNQAPFSFDLSVMAIYPCLTSGGTLNLVDKDMIKKPKLLNEMLVQTPMNVWVSTPSFIEMCLLLPNLNEQQYSSLKQFFFCGEILPHKTAKALVERFPNSMIYNTYGPTEATVAVTSIQITEEILNQYNPLPVGVARPGTKLFATEEGELVIEGQSVSLGYLKNEEKTTAVFNFEDGVRTYHTGDKAKIEDGLWFIQGRIDFQIKLNGYRMELEEIETQLRQSKHVREAVVVPVYKNGKVIHLIGAVVPTEPVEDNLAMTTHIKHELKSRLPEYMIPRKFEWMEQLPLTSNGKLDRKKIAEVVNG”, the protein production was “failed”.
For “MADQGLEESNPMDLSKHPSGIVPTPHSQVIYKMPPRIAAIRLVSSHREVYEPCDDSFALVDALLADRTNLIEHNPKICMEIGCGSGYVITSLILLLQNEVPGVHYLAIDTNPIATRVTKETLEAHGVNADVICADLATGLEKRLAGSVDVIVVNPPYVPTPEYEVGMEGIASAWAGGENGRTVIDKILPVVDLLLSEKGWFYLVTLTSNFPAEICLMMRKKGYASRIVVQRSTEEENLVILKFWRDKDEESQDKETSSSSFVSQFSKSLSSLMEKQWR”, the protein production was “failed”.
In the case of “MADQNRSEEKTVKSPNVFERVKEEIEAMGHHEKSKSRHHDKETHGTSDDIDESTPIDYVKGPGFFQRLKEEIEAIFNAVTPKRSSKK”, the protein production is reported as “failed”.
